Data as given in US20240307496A1, “METHOD AND PHARMACEUTICAL COMBINATION FOR PREVENTING CANCER RECURRENCE” (priority 2021, published 2024).

B1: deglycosylated mIFN-α4: recombinant mouse interferon α4 (GenBank NP_034634) expressed in Pichia pastoris, glycosyl groups removed with glycosidase (protein, UniProt P07351 25-186, looked up)
Interferon alpha-4: CDLPHTYNLGNKRALTVLEEMRRLPPLSCLKDRKDFGFPLEKVDNQQIQKAQAILVLRDLTQQILNLFTSKDLSATWNATLLDSFCNDLHQQLNDLKACVMQEPPLTQEDSLLAVRTYFHRITVYLRKKKHSLCAWEVIRAEVWRALSSSTNLLARLSEEKE
modifications: deglycosylated
notes: recombinant mouse interferon α4 (GenBank NP_034634) expressed in Pichia pastoris, glycosyl groups removed with glycosidase
B2: PEG-mIFN-α4: deglycosylated recombinant mouse interferon α4 modified with 40kD Y-type polyethylene glycol succinimide ester (YPEG-NHS); SEQ ID NO: 6 (protein)
chain: B1 Interferon alpha-4
modifications: 40kD Y-type PEG; deglycosylated; peginterferon murine alpha 4

Tests used:
[1] = test system: transplanted colorectal cancer CT26; test: Prevention of recurrence of transplanted colorectal cancer CT26 in mice; format: in vivo, BALB/c mice; conditions: for anticancer activity / prevention of tumor recurrence (conclusion): CT26 recurrence simulated with low-density tumor inoculation; for survival rate during the observation period / Tumor incidence: gemcitabine 60 mg/kg i.p.; for Tumor incidence: tumor volume ≥ 62.5 mm^3 positive, then stopped 56 days
Method: On the day after tumor inoculation, they were randomly divided into the following experiment groups: PEG-mIFN-α4 only group (N=20, 10 females and 10 males), normal saline control group (N=20, 10 females and 10 males), gemcitabine only group (N=20, 10 females and 10 males), and PEG-mIFN-α4 combined with gemcitabine group (N=20, 10 females and 10 males).
PEG-mIFN-α4 was administered by subcutaneous injection on the back of the neck, with a dose of 1 microgram per mouse. Administration began on the day after grouping. In the PEG-miFN-α4 only group, PEG-mFN-α4 was administered once a week for 12 times, and then stopped for 56 days. In the PEG-mIFN-α4 combined with gemcitabine group, both PEG-mIFN-α4 and gemcitabine were administered once a week for 12 consecutive times, and then stopped for 56 days. In the gemcitabine only group, gemcitabine was administered once a week for 12 times, and then stopped for 56 days. The normal saline control group was given an equal volume of normal saline. Gemcitabine was administered by intraperitoneal injection at a dose of 60 mg/kg.
(§1) The tumor incidence of each group was calculated when the tumor volume was greater than or equal to 62.5 mm^3, which was determined as positive for tumor occurrence.

[2] = test system: transplanted liver cancer H22; test: Prevention of recurrence of transplanted liver cancer H22 in mice; format: in vivo, BALB/c mice; conditions: for anticancer activity / prevention of tumor recurrence (conclusion): H22 recurrence simulated with low-density tumor inoculation; for Tumor incidence: tumor volume ≥ 62.5 mm^3 positive, then stopped 103 days, PEG-mIFN-α4 1 μg/mouse s.c.
Description: After tumor treatment, the tumor load in patient's body is relatively low, so a low tumor grafting volume is used to simulate the state after tumor treatment. […] Three days after tumor inoculation, they were randomly divided into the following experiment groups: PEG-mIFN-α4 group (N=28, 14 females, 14 males). PEG-mIFN-α4 combined with gemcitabine group (N=28, 14 females, 14 males), normal saline control group (N=28, 14 females, 14 males), and gemcitabine only group (N=28, 14 females, 14 males).
PEG-mIFN-α4 was administered by subcutaneous injection on the back of the neck, with a dose of 1 microgram per mouse. Administration began on the day after grouping. In the PEG-mIFN-α4 group, PEG-mIFN-α4 was administered once a week for 9 weeks, and then stopped for 103 days. In the PEG-mIFN-α4 combined with gemcitabine group, PEG-mIFN-α4 and gemcitabine were administered once a week for 9 weeks, and then stopped for 103 days. In the gemcitabine alone group, gemcitabine was administered once a week for 9 weeks, and then stopped for 103 days. The normal saline control group was given an equal volume of normal saline. Gemcitabine was injected intraperitoneally at a dose of 60 mg/kg.
as §1

[3] = test system: mouse fibroblast/encephalomyocarditis vinis (L929/EMCV); test: L929/EMCV cytopathic inhibition method, specific activity; format: cell-based; conditions: commercial mIFN-α4 (R&D) as the standard
Method: (§2) The bacterial endotoxin content of the deglycosylated mIFN-α4 stock solution was determined by the Limulus reagent method as lower than 60 EU/mg, specific activity was determined as 5.4×10^8 U/mg by using the commercial mIFN-α4 (R&D, catalog number 12115-1) as the standard, and by using the mouse fibroblast/encephalomyocarditis vinis (L929/EMCV) cytopathic inhibition method.
as §2, with “PEG-mIFN-α4” for “deglycosylated mIFN-α4”, “15 EU/mg. Specific” for “60 EU/mg, specific”, “6.1×10^6” for “5.4×10^8”

[4] = design: species or system BALB/c mice; conditions: mouse, in vivo, sc
Description: Note: In the pharmacokinetic analysis, for samples with blood concentration lower than the quantification lower limit, the sample before the peak blood concentration was counted as 0, and the sample after the peak was expressed as BLQ.

[5] = by day 134 after tumor inoculation, once a week for 12 times, PEG-mIFN-α4 1 μg/mouse s.c.
[6] = by day 134 after tumor inoculation, once a week for 12 times, PEG-mIFN-α4 1 μg/mouse s.c., listed as gemcitabine
[7] = by day 166 after tumor inoculation, once a week for 9 weeks, gemcitabine 60 mg/kg i.p.

Row | Molecule | anticancer activity / prevention of tumor recurrence (conclusion) [1] | survival rate during the observation period [1, 5] | survival rate during the observation period [1, 6] | Tumor incidence [1, 5] | Tumor incidence [1, 6] | anticancer activity / prevention of tumor recurrence (conclusion) [2] | Median survival time (time after tumor inoculation, days) [2, 7] | Tumor incidence [2, 7] | Tumor incidence ([2]; by day 166 after tumor inoculation, once a week for 9 weeks, gemcitabine 60 mg/kg i.p., listed as gemcitabine) | specific activity [3] | tumor incidence compared with normal saline control group ([1]; CT26, day 134) | Median survival time (time after tumor inoculation, days) [1, 5] | Cl_F—obs [4] | T1/2 [4] | Tmax [4] | Vz_F—obs [4] | elimination half-life (T1) [4] | plasma concentration peak time (Tmax) [4] | tumor incidence compared with normal saline control group ([2]; H22, day 166)
1 | Nc1ccn([C@@H]2O[C@H](CO)[C@@H](O)C2(F)F)c(=O)n1 [Gemcitabine, reference compound] | could effectively prevent tumor recurrence | period: 55.0% | 55.0% | 50.0% | 50% | could effectively prevent tumor recurrence | 93.0 days | 57.1% | 57.1% |  |  |  |  |  |  |  |  |  | 
2 | B1 |  |  |  |  |  |  |  |  |  | 5.4×10^8 U/mg |  |  |  |  |  |  |  |  | 
3 | B2 | could effectively prevent tumor recurrence |  |  | 95% |  | could effectively prevent tumor recurrence |  | 32.1% |  | 6.1×10^6 U/mg | lower | 68.5 days | 0.07 mL/h | 28.3 h | 24.0 h | 2.91 mL | 28.3 h | 24 h | lower
